The data set concerns the molecule itself. Nature of the data set: gel filtration chromatography through Sephadex G-100 (self-association / homodimerization). On the procedure: Gel Filtration Chromatography: Gel filtration chromatography of recombinant human SULT2A1 was performed at 4° C. with a 2×25 cm column of Sephadex G-100 superfine. The mobile phase was 5 mM K phosphate buffer, pH 7.5, and 3 ml fractions were collected at a flow rate of approximately 1.8 mL per h. The fractions were assayed for SULT2A1 activity. Standards for column calibration were eluted separately and included Dextran Blue 2000, bovine serum albumin (67 kDa), ovalbumin (45 kDa), chymotrypsinogen A ([…]) and ribonuclease A (13.7 kDa).
The Ala261 Thr polymorphism is located within the dimerization motif at the C-terminus of the conserved 'Region IV' SULT signature sequence, and may alter the formation of the SULT2A1 homodimer. To test that hypothesis, recombinant WT and codon Thr261 variant allozyme preparations were subjected to gel filtration chromatography through Sephadex G-100.
For orientation: SEC sorts molecules by how far they enter the pores of the column.

B1: wild type SULT2A1 polypeptide (reference human SULT2A1) (enzyme)
chain: MSDDFLWFEGIAFPTMGFRSETLRKVRDEFVIRDEDVIILTYPKSGTNWLAEILCLMHSKGDAKWIQSVPIWERSPWVESEIGYTALSESESPRLFSSHLPIQLFPKSFFSSKAKVIYLMRNPRDVLVSGYFFWKNMKFIKKPKSWEEYFEWFCQGTVLYGSWFDHIHGWMPMREEKNFLLLSYEELKQDTGRTIEKICQFLGKTLEPEELNLILKNSSFQSMKENKMSNYSLLSVDYVVDKAQLLRKGVSGDWKNHFTVAQAEDFDKLFQEKMADLPRELFPWE
notes: Recombinant protein expressed in COS-1 cells from pCR3.1 and used as an unpurified high speed supernatant cytosol preparation; The pair written here is its self-association into the homodimer; also called WT; WT enzyme
For the protein B1, the binding result was “binds”.

B2: SULT2A1 Ala261Thr allozyme (enzyme)
chain: MSDDFLWFEGIAFPTMGFRSETLRKVRDEFVIRDEDVIILTYPKSGTNWLAEILCLMHSKGDAKWIQSVPIWERSPWVESEIGYTALSESESPRLFSSHLPIQLFPKSFFSSKAKVIYLMRNPRDVLVSGYFFWKNMKFIKKPKSWEEYFEWFCQGTVLYGSWFDHIHGWMPMREEKNFLLLSYEELKQDTGRTIEKICQFLGKTLEPEELNLILKNSSFQSMKENKMSNYSLLSVDYVVDKAQLLRKGVSGDWKNHFTVTQAEDFDKLFQEKMADLPRELFPWE
notes: Recombinant variant made by site directed mutagenesis and expressed in COS-1 cells from pCR3.1; It was used as an unpurified cytosol preparation; also called codon Thr261 variant allozyme
For the protein B2, the binding result is “no binding”.

The record behind these values is patent publication US7056731 (MAYO FOUNDATION FOR MEDICAL EDUCATION AND RESEARCH, dated 2006).
